Laboratory results published in patent publication US20210364527A1 (QUANTUM SI, published 2021).
Like-named read-outs stand apart in the source and are kept apart here.

T1: VA peptide VAKLDEESILKQK (XAKLDEESILKQK, X = V)
T1 construct: Immobilized on the biolayer interferometry sensor
T1 peptide: VAKLDEESILKQK

T2: IA peptide IAKLDEESILKQK (XAKLDEESILKQK, X = I)
T2 construct: Immobilized on the biolayer interferometry sensor
T2 peptide: IAKLDEESILKQK

T3: LA peptide LAKLDEESILKQK (XAKLDEESILKQK, X = L)
T3 construct: Immobilized on the biolayer interferometry sensor
T3 peptide: LAKLDEESILKQK

T4: Y peptide YAKLDEESILKQK (XAKLDEESILKQK, X = Y)
T4 construct: Immobilized on the biolayer interferometry sensor
T4 peptide: YAKLDEESILKQK

T5: W peptide WAKLDEESILKQK (XAKLDEESILKQK, X = W)
T5 construct: Immobilized on the biolayer interferometry sensor
T5 peptide: WAKLDEESILKQK

T6: F peptide FAKLDEESILKQK (XAKLDEESILKQK, X = F)
T6 construct: Immobilized on the biolayer interferometry sensor
T6 peptide: FAKLDEESILKQK


Tests used:
Test in all cases: BLI heatmap
[1] = target: T1, VA peptide VAKLDEESILKQK …
[2] = target: T2, IA peptide IAKLDEESILKQK …
[3] = target: T3, LA peptide LAKLDEESILKQK …
[4] = target: T4, Y peptide YAKLDEESILKQK (XAKLDEESILKQK, …)
[5] = target: T5, W peptide WAKLDEESILKQK (XAKLDEESILKQK, …)
[6] = target: T6, F peptide FAKLDEESILKQK (XAKLDEESILKQK, …)
[7] = target: T1, VA peptide VAKLDEESILKQK …
[8] = target: T2, IA peptide IAKLDEESILKQK …
[9] = target: T3, LA peptide LAKLDEESILKQK …
[10] = target: T6, F peptide FAKLDEESILKQK (XAKLDEESILKQK, …)

Row | Binder | binding result [1] | binding result [2] | binding result [3] | binding result [4] | binding result [5] | binding result [6] | binding result [7] | binding result [8] | binding result [9] | binding result [10]
1 | PS435 (other) MTLSVALGPDTQESTQTGTAVSTDTLTAPDIPWNLVIWNDPVNLMSYVSYVFQSYFGYSETKANKLMMEVHKKGRSIVAHGSKEQVEQHAVAMHGYGLWATVEKATGGNSGGGKSGGPGKGKGKRG | no binding | no binding | binds | binds | binds | binds | – | – | – | –
2 | PS368 (other) MASAPSTTLDKSTQVVKKTYPNYKVIVLNDDLNTFDHVANCLIKYIPDMTTDRAWELTNQVHYQGQAIVWTGPQEQAELYHQQLRREGLTMAPLEAA | no binding | no binding | binds | binds | binds | binds | – | – | – | –
3 | PS574 (other) MANATPTPDVVPEEETETRTRRQPPYAVVLHNDDTNTMDFVVTVLRKVFGYTVEKCVELMLEAHTQGKVAVWIGALEVAELKADQIKSFGPDPHVTKNGHPLGVTVEPAA | – | – | – | – | – | – | no binding | no binding | no binding | binds
4 | PS561 (other) MAELQTAVVEPTTRPEQDEKQSQSRPKRQPRYNVILWDDPDHSYDYVIMMLKELFGHPRQRGHQMAEEVDTTGRVICLTTTMEHAELKRDQIHAYGSDEGITRCKGSMSASIEPVPE | – | – | – | – | – | – | no binding | no binding | no binding | no binding
5 | PS429 (other) MSVQEEVLEEVKTKERVNKQNQIIVFNDDVNTFDHVIDMLIATCDHDPIQAEQCTMLIHYKGKCEVKTGDYDDLKPRCSKLLDAGISAEIQ | no binding | no binding | no binding | no binding | no binding | – | – | – | – | –
6 | PS567 (other) MADYEDAGEDALEDDFDHGTVTVAPQKPEPKKQSENKRQANRQPRYNVLLWDSEDHTFEYVEKMLRELFGHIKKQCQIIAEQVDQEGRAVVLTTTLEHAELKRDQIHAYGKDQLEGSKGSMWSTIEAVD | – | – | – | – | – | – | no binding | no binding | no binding | no binding
7 | PS391 (other) MGQTVEKPRVEGPGTGLGGSWRVIVRNDDHNTFDHVARTLARFIPGVSLERGHEIAKVIHTTGRAVVYTGHKEAAEHYWQQLKGAGLTMAPLEQG | – | – | binds | binds | – | binds | – | – | – | –

Next, values leading:

Row | binding result [1] | binding result [2] | binding result [3] | binding result [4] | binding result [5] | binding result [6] | binding result [7] | binding result [8] | binding result [9] | binding result [10] | Binder
8 | no binding | no binding | no binding | no binding | binds | – | – | – | – | – | PS377 (other) MADISKSRPEIGGPKGPQFGDSDRGGGVAVITKPVTKKKFKRKSQTEYEPYWHVLLHHDNVHTFEYATGAIVKVVRTVSRKTAHRITMQAHVSGVATVTTTWKAQAEEYCKGLQMHGLTSSIAPDSSFTH
9 | no binding | no binding | no binding | binds | binds | binds | – | – | – | – | PS406 (other) MPDATTTPRTKTLTRTARPPLHKVILVNDDFTPREFVVRLLKAEFRTTGDEAQRIMITAHMKGSCVVAVFTREIAESKATRATETARAEGFPLLFTTEPEE
10 | no binding | no binding | no binding | no binding | no binding | – | – | – | – | – | PS431 (other) MIISSVKSSPSTETLSRTELQLGGVWRVVVLNDPVNLMSYVMMIFKKIFGFNETVARRHMLEVHEKGRSVVWSGLREKAEAYVFTLQQWHLTAVLESDETH
11 | – | – | – | – | – | – | no binding | no binding | no binding | no binding | PS564 (other) MFEEVVSVAVAEPKTKKQSRTKPKRQPPYHVILWDDTDHTFDYVIKMMGELFRMPREKGYQLAKEVDTSGRAICMTTTLELAELKRDQIHAFGRDDASAHCKGSMSATIEPAEG
12 | no binding | no binding | no binding | no binding | no binding | no binding | – | – | – | – | PS381 (other) MVAFSKKWKKDELDKSTGKQKMLILHNDSVNSFDYVIKTLCEVCDHDTIQAEQCAFLTHFKGQCEIAVGEVADLVPLKNKLLNKNLIVSIH
13 | no binding | no binding | no binding | no binding | no binding | no binding | – | – | – | – | PS373 (other) MNRIKQEAVRTENLLICSESIRRTPGTMSNEESMFDEVVAVAVAEPETQHDERRGTKPKRQPPYHVILWDDTDHSFDYVIMMMKRLFRMPIEKGFQVAKEVDSSGRAICMTTTLELAELKRDQIHAFGKDELLPRCKGSMSATIEPAEG
14 | no binding | no binding | no binding | no binding | no binding | no binding | – | – | – | – | PS379 (other) MSTQEEVLEEVKTTTQKENEIVLYNDDYNTFDHVIETLIYACEHTPVQAEQCAILVHYKGKCTVKTGSFDELKPRCSKLLEEGLSAEIV
15 | – | – | binds | binds | – | binds | – | – | – | – | PS369 (other) MTSTLRARPARDTDLQHRPYPHYRIIVLDDDVNTFQHVVNCLVTFLPGMTRDQAWAMAQQVDGEGSAVVWTGPQEQAELYHVQLGNHGLTMAPLEPV
16 | – | – | – | – | – | – | no binding | no binding | no binding | no binding | PS562 (other) MSDQQSMVAEPEVVVHTQDEKKLEKQNKRKKQPRYNVVLWDDTDHSYDYVVLMMKQLFHHPIETGFQIAKQVDKGGKAICLTTTMEHAELKRDQIHAFGKDDLIARCTGSMSATIEPVPE
